This is an account of results in patent US20240350586A1 (TSINGHUA UNIVERSITY, published 2024).

The labels stand for the following.
T1: His-mRuby2-CCT2 (purified) (human, UniProt P78371 2-535)
T1 construct: 4 uM added to FUS P525L granules in vitro; also called CCT2 protein; not shown: His tag and mRuby2
T1 sequence: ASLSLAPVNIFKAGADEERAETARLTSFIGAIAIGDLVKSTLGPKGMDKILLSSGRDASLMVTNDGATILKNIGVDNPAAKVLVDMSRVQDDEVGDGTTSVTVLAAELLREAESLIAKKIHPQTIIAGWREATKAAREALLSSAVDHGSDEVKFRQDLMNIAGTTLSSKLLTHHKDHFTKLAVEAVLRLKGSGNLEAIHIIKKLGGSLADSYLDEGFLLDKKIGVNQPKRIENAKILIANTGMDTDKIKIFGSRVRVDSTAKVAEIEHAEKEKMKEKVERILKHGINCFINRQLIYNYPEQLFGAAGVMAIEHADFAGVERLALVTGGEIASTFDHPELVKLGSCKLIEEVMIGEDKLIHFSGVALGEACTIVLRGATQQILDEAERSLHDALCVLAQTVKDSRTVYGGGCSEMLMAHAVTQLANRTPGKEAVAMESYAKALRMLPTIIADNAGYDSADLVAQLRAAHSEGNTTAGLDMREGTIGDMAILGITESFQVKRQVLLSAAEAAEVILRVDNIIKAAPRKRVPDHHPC

B1: HA-CCT2 (chaperonin subunit CCT2, wild type, N-terminal HA tag) (other)
chain: T1 sequence
notes: Expressed in HEK293T or U2OS from pFUGW-HA-CCT2; CCT genes were amplified from HEK293T cDNA; also called WT CCT2; HA-CCT2 WT; not shown: N-terminal HA tag
B2: HA-CCT2 mVLL (other)
chain: T1 sequence with V502A, L503A, L504A
notes: also called CCT2 VLL mutated to alanine; not shown: N-terminal HA tag
B3: GST-HA-CCT2 with VLL and VIL mutated (purified) (other)
chain: T1 sequence with V502A, L503A, L504A, V512A, I513A, L514A
notes: also called GST-CCT2s; CCT2 with mutation of VLL and VIL; not shown: N-terminal GST and HA tags
B4: HA-CCT2 mVIL (other)
chain: T1 sequence with V512A, I513A, L514A
notes: also called CCT2 VIL mutated to alanine; not shown: N-terminal HA tag
B5: T7-GABARAP (expressed in cells) (other, UniProt O95166 1-116, looked up)
chain: MKFVYKEEHPFEKRRSEGEKIRKKYPDRVPVIVEKAPKARIGDLDKKKYLVPSDLTVGQFYFLIRKRIHLRAEDALFFFVNNVIPPTSATMGQLYQEHHEEDFFLYIAYSDESVYG
notes: not shown: T7 tag
B6: GFP-FUS P525L (purified, after TEV digestion of MBP-TEV-GFP-FUS P525L) (other, UniProt P35637 1-526, looked up)
chain: MASNDYTQQATQSYGAYPTQPGQGYSQQSSQPYGQQSYSGYSQSTDTSGYGQSSYSSYGQSQNTGYGTQSTPQGYGSTGGYGSSQSSQSSYGQQSSYPGYGQQPAPSSTSGSYGSSSQSSSYGQPQSGSYSQQPSYGGQQQSYGQQQSYNPPQGYGQQNQYNSSSGGGGGGGGGGNYGQDQSSMSSGGGSGGGYGNQDQSGGGGSGGYGQQDRGGRGRGGSGGGGGGGGGGYNRSSGGYEPRGRGGGRGGRGGMGGSDRGGFNKFGGPRDQGSRHDSEQDNSDNNTIFVQGLGENVTIESVADYFKQIGIIKTNKKTGQPMINLYTDRETGKLKGEATVSFDDPPSAKAAIDWFDGKEFSGNPIKVSFATRRADFNRGGGNGRGGRGRGGPMGRGGYGGGGSGGGGRGGFPSGGGGGGGQQRAGDWKCPNPTCENMNFSWRNECNQCKAPKPDGPGGGPGGSHMGGNYGDDRRGGRGGYDRGGYRGRGGDRGGFRGGRGGGDRGGFGPGKMDSRGEHRQDRRERLY
notes: 2 uM protein, as liquid granules (phase separation) or as solid aggregates (shaken at 700 rpm); also called FUS P525L granules; not shown: GFP
B7: CCT2 domain3 peptide 7 mVL(I)L (peptide)
peptide: ILGITESFQVKRQAAASAAEAAEAAARVDN
notes: Synthetic peptide coupled to agarose beads; VLL and VIL replaced by alanines; also called peptide 7 mutant (mVL (I) L)

One assay addresses T7-LC3B (UniProt Q9GZQ8 1-120). Kind of assay: co-IP of HA-CCT2 with T7-ATG8s in HEK293T. From the text: The cells were permeabilized with digitonin before fixation. [0136] (G) Quantification of LC3 around Q103-HTT IB (mean±SEM) as shown in (F). […] [0137] […] The cells were permeabilized with digitonin before immunoblot analysis. LE, long exposure; SE, short exposure. [0138] (I) Quantification of normalized Q103-HTT (mean±SEM) in (H). […] [0139] […] The VLIR motif VIL is highlighted in red. [0140] […] The data are representative of three independent experiments. [0141] […] The cells were permeabilized with digitonin before fixation. [0142] (M) Quantification of LC3 around IBs (mean±SEM) as shown in (L). […] [0143] […] [0144] (O) Quantification of normalized Q103-HTT (mean±SEM) in (N).
Co-immunoprecipitation was performed essentially as described before. In brief, 24 h after transfection, the cells were collected and lysed on ice for 30 min in co-IP buffer (50 mM Tris/HCl pH 7.4, 150 mM NaCl, 1 mM EDTA, 0.5% NP40) with protease inhibitor mixture, and the lysates were cleared by centrifugation. The resulting supernatants were incubated with indicated agarose or magnetic beads and rotated at 4° C. for 3 h. The agarose was washed five times with co-IP buffer. As for the BFP-tagged Q103, the supernatants were incubated with rabbit anti-BFP antibodies and Protein A/G PLUS-Agarose according to the manufacturers' protocol. […]

The target of assay [1] is T2, T7-LC3C (expressed in cells) (UniProt Q9BXW4 1-126).
T2 construct: Expressed from pCDNA3-T7-LC3C; not shown: T7 tag
T2 sequence (Q9BXW4 1-126): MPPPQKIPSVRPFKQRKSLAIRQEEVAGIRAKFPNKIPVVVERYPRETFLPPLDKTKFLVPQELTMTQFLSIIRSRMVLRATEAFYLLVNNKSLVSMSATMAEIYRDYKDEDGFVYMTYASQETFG
Kind of assay: co-IP with T7-LC3C in HEK293T. As to the method: (§1) The data are representative of three independent experiments. [0146] […] The data are representative of three independent experiments. [0147] […] The data are representative of three independent experiments. [0148] […] The interaction of the peptides with T7-GABARAP or T7-GABARAPL1 proteins was analyzed by in vitro pull-down. The data are representative of three independent experiments. [0149] […] The data are representative of three independent experiments. [0150] […] [0151] (K) Quantification of Q103-HTT-GFP area/DAPI area (mean±SEM) as shown in [0152] (J). 48 h represents IB accumulation stage and 72 h represents clearance stage. P values are indicated (two-tailed t test, >20 views from three independent experiments). [0153] […] The data are representative of three independent experiments. [0154] […] The data are representative of three independent experiments. [0155] […] The data are representative of three independent experiments.
(§2) Co-immunoprecipitation was performed essentially as described before. In brief, 24 h after transfection, the cells were collected and lysed on ice for 30 min in co-IP buffer (50 mM Tris/HCl pH 7.4, 150 mM NaCl, 1 mM EDTA, 0.5% NP40) with protease inhibitor mixture, and the lysates were cleared by centrifugation. The resulting supernatants were incubated with indicated agarose or magnetic beads and rotated at 4° C. for 3 h. The agarose was washed five times with co-IP buffer.

Assay [2] has as its target T3, His-T7-LC3C (purified protein) (UniProt Q9BXW4 1-147).
T3 construct: Purified on Ni sepharose; used in peptide and protein pull-downs; also called T7-LC3C protein; purified LC3C; not shown: His and T7 tags
Kind of assay: in vitro pull-down of purified proteins, immunoblot. In general terms: In western blotting, separated proteins are transferred to a membrane and probed.

In assay [3] the target is B1. Kind of assay: co-IP of HA-CCT2 with T7-GABARAP in HEK293T. As to the method:
as §1, §2

Assay [4] deals with T1, His-mRuby2-CCT2 (purified). The assay can be described thus: recruitment of 4 uM mRuby2-CCT2 to FUS P525L granules in vitro, imaging. From the text: [0179] […] [0180] […] [0181] […] [0182] […] [0184] […] [0185] […] [0186]
In assay [5] the target is T3, His-T7-LC3C (purified protein). The assay can be described thus: peptide pull-down, immunoblot. An excerpt: The data are representative of three independent experiments. […] The cells were permeabilized with digitonin before fixation. [0136] (G) Quantification of LC3 around Q103-HTT IB (mean±SEM) as shown in (F). […] [0137] […] The cells were permeabilized with digitonin before immunoblot analysis. LE, long exposure; SE, short exposure. [0138] (I) Quantification of normalized Q103-HTT (mean±SEM) in (H). […] [0139] […] The VLIR motif VIL is highlighted in red. [0140] […] The data are representative of three independent experiments. [0141] […] The cells were permeabilized with digitonin before fixation. [0142] (M) Quantification of LC3 around IBs (mean±SEM) as shown in (L). […] [0143] […] [0144] (O) Quantification of normalized Q103-HTT (mean±SEM) in (N).
After washing, 2×SDS loading buffer was added to the beads, and immunoblot was performed as described previously.

Where a chain is given by its changes, count along the chain named. Numbers in names are those of the source.

T3 sequence (Q9BXW4 whole entry): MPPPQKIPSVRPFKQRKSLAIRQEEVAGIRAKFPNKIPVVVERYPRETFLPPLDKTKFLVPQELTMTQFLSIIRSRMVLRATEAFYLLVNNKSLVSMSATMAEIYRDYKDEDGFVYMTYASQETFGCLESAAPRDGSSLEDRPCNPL

For the molecule B1, in the assay with T7-LC3B, the binding result was “binds”.
Turning to B2, the binding result in assay [1] was “no binding”.
For the molecule B3, the binding result in assay [2] is reported as “no binding”.
Consider B4, for which the binding result in assay [1] is “no binding”.
For B5, the binding result in assay [3] is reported as “binds”.
Consider B6, for which the binding result in assay [4] is reported as “binds”.
B7: the binding result in assay [5] is given as “no binding”.
